Assay results taken from US20230218739A1.
Where “and” joins values, the source holds several entries; their conditions need not be identical. Identical values can stand only once. Like-named read-outs stand apart in the source and are kept apart here.

Tests used:
[1] = molecular target: recombinant HA produced from insect cells; experiment: ForteBio Octet molecular interaction analysis
[2] = molecular target: Influenza HA-Trimer (exemplary fusion protein comprising HA (Influenza A virus A/California/07/2009-pdm (H1N1))); experiment: biolayer interferometry (Octet), […]
[3] = molecular target: Rabies G-Trimer (CTN-1 Strain) (ectodomain of rabies CTN-1 strain G protein fused in frame to Trimer-Tag) (Rabies virus CTN-1 strain)
[4] = molecular target: Rabies G-Trimer (CTN-1 Strain) (ectodomain of rabies CTN-1 strain G protein fused in frame to Trimer-Tag) (Rabies virus CTN-1 strain); remark: listed apart in the source
[5] = molecular target: Rabies G-Trimer (CTN-1 Strain) (ectodomain of rabies CTN-1 strain G protein fused in frame to Trimer-Tag) (Rabies virus CTN-1 strain); remark: listed apart in the source

Row | Substance | Kd [1] | Kd [2] | CTN-1 Specific IgG titer (End point) [3] | p75 Competitive titer IC50 GMT [4] | p75 Competitive titer IC50 GMT [5]
1 | CR6261 (broadly neutralizing anti-HA antibody, ACRO Biosystems) | 3.8 nM | < 0.001 nM | – | – | –
2 | HDCV | – | – | 57 and 33 | 87 | 30 and 25
